In US20040219131A1 (MAXYGEN, published 2004):
Substitutions are numbered along the chain they refer to.

T1: interferon-alpha receptor (human, UniProt P17181 28-557; P48551 27-515)
T1 sequence (looked up) 1: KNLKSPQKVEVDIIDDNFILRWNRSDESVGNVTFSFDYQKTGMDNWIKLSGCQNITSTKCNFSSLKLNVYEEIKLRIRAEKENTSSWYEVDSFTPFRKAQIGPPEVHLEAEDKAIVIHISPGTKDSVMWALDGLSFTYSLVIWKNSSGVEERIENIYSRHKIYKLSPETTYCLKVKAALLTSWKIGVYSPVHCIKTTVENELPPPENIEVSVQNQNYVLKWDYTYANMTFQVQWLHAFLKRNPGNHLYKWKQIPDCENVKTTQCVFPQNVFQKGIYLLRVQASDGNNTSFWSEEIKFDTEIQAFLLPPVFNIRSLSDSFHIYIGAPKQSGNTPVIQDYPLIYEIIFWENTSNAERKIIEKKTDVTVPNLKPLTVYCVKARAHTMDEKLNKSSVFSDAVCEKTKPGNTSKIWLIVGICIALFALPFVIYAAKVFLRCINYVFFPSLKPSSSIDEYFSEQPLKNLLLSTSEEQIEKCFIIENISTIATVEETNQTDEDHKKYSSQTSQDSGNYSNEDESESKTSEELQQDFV
T1 sequence (looked up) 2: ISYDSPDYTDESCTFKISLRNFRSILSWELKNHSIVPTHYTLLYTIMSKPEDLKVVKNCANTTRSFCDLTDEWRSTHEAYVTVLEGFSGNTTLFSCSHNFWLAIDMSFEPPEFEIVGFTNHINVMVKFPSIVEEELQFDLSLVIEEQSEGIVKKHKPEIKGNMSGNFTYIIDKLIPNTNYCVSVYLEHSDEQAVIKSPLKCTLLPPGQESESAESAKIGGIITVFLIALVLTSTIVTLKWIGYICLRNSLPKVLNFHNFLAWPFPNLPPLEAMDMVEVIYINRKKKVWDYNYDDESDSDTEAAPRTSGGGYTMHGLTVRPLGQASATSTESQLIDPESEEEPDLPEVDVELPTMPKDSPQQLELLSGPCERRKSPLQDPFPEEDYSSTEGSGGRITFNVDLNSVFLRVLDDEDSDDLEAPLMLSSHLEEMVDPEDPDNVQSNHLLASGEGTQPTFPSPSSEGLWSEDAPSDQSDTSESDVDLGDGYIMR

B1: IFN-alpha Con1 (ligand)
chain: CDLPQTHSLGNRRALILLAQMRRISPFSCLKDRHDFGFPQEEFDGNQFQKAQAISVLHEMIQQTFNLFSTKDSSAAWDESLLEKFYTELYQQLNDLEACVIQEVGVEETPLMNVDSILAVKKYFQRITLYLTEKKYSPCAWEVVRAEIMRSFSLSTNLQERLRRKE
B2: B9x14 (ligand)
chain: CDLPQTHSLGHRRTMMLLAQMRRISLFSCLKDRHDFRFPQEEFDGNHFQKVQAIFLFYEMMQQTFNLFSTKNSSAAWDETLLEKFYIELFQQMNDLEACVMQEVGVEETPLMNVDSILAVRKYFQRITLYLTEKKYSPCAWEVVRAEIMRSFSFSTNLQKRLRRKE
B3: B9x16 (ligand)
chain: B2 chain with H47Q
B4: B9x18 (ligand)
chain: B2 chain with H47Q, V51T, F55S, L56V, Y58H
B5: B9x15 (ligand)
chain: B2 chain with H47Q, V51T, F55S, L56V, Y58H, E133K, A140S
B6: B9x11 (ligand)
chain: B2 chain with E133K, A140S
B7: B9x12 (ligand)
chain: B2 chain with H47Q, E133K, A140S
B8: B9x17 (ligand)
chain: B2 chain with V51T, F55S, L56V, Y58H
B9: 25Ep05 (ligand)
chain: CDLPQTHSLSNRRTLMLMAQMRRISPFSCLKDRHDFGFPEEEFDGHQFQKTQAISVLHELIQQTFNLFSTKDSSAAWDETLLEKFYIELFQQMNDLEACVIQEVGVEEIALMNVDSILAVRKYFRRITLYLTEKKYSPCAWEVVRAEIMRSFSLSTNLQESLRSKE
B10: B9x27 (ligand)
chain: CDLPQTHSLSNRRTLMLMAQMRRISPFSCLKDRHDFGFPEEEFDGHQFQKVQAIFLLYELIQQTFNLFSTKNSSAAWDETLLEKFYIELFQQMNNLEACVIQEVGVEEIALMNVDSILAVRKYFRRITLYLTKKKYSPCSWEVVRAEIMRSFSFSTNLQKRLRRKE
B11: B9x21 (ligand)
chain: B9 chain with D72N, D95N, L154F, E160K, S161R, S164R
B12: B9x24 (ligand)
chain: B10 chain with V51T, F55S, L56V, Y58H
B13: B9x28 (ligand)
chain: B10 chain with Q47H
B14: B9x26 (ligand)
chain: B10 chain with Q47H, V51T, F55S, L56V, Y58H
B15: B9x25 (ligand)
chain: B10 chain with Q47H, K133E, S140A
B16: B9x22 (ligand)
chain: B9 chain with Q47H, D72N, D95N, L154F, E160K, S161R, S164R
B17: B9x23 (ligand)
chain: B10 chain with K133E, S140A

Molecular target: T1, interferon-alpha receptor
Test: cell-based or functional assay

| Binder | Antiviral activity relative to huIFNα-2b (EC50 huIFN-alpha 2b/EC50 sample), EMCV/HuH-7 assay |
| --- | --- |
| B1 | ~2 fold relative to huIFNα-2b |
| B2 | ≥ 10 fold relative to huIFNα-2b |
| B3 | ≥ 10 fold relative to huIFNα-2b |
| B4 | ≥ 10 fold relative to huIFNα-2b |
| B5 | ≥ 5 fold relative to huIFNα-2b |
| B6 | ≥ 10 fold relative to huIFNα-2b |
| B7 | ≥ 10 fold relative to huIFNα-2b |
| B8 | ≥ 10 fold relative to huIFNα-2b |
| B9 | ≥ 2.5 fold relative to huIFNα-2b |
| B10 | ≥ 10 fold relative to huIFNα-2b |
| B11 | ≥ 10 fold relative to huIFNα-2b |
| B12 | ≥ 5 fold relative to huIFNα-2b |
| B13 | ≥ 10 fold relative to huIFNα-2b |
| B14 | ≥ 5 fold relative to huIFNα-2b |
| B15 | ≥ 10 fold relative to huIFNα-2b |
| B16 | ≥ 10 fold relative to huIFNα-2b |
| B17 | ≥ 10 fold relative to huIFNα-2b |

Molecular target: T1, interferon-alpha receptor
Test: cell-based or functional assay
Remark: another data set of the same source

| Binder | Antiproliferative activity relative to huIFNα-2b (EC50 huIFN-alpha 2b/EC50 sample), Daudi cell thymidine incorporation assay |
| --- | --- |
| B1 | ~1.5 fold relative to huIFNα-2b |
| B2 | ≤ 0.5 fold relative to huIFNα-2b |
| B3 | ≤ 0.25 fold relative to huIFNα-2b |
| B4 | ≤ 0.25 fold relative to huIFNα-2b |
| B5 | ≤ 0.25 fold relative to huIFNα-2b |
| B8 | ≤ 0.5 fold relative to huIFNα-2b |
| B10 | ≤ 0.25 fold relative to huIFNα-2b |
| B11 | ≤ 0.5 fold relative to huIFNα-2b |
| B12 | ≤ 0.25 fold relative to huIFNα-2b |
| B14 | ≤ 0.25 fold relative to huIFNα-2b |
| B15 | ≤ 0.5 fold relative to huIFNα-2b |
| B16 | ≤ 0.5 fold relative to huIFNα-2b |
| B17 | ≤ 0.5 fold relative to huIFNα-2b |
